These results are taken from PMC446230.

Experiment [1] addresses DC-SIGN (DC-specific intercellular adhesion molecule-3 (ICAM-3)-grabbing nonintegrin) on K562/DC-SIGN cells (human) (UniProt Q9NNX6). The experiment in a line: virus adhesion to cells, captured virus measured by p24 ELISA. For orientation: In an ELISA, binding on a coated surface is turned into a signal by an enzyme label.
The target in experiment [2] is DC-SIGN (DC-specific intercellular adhesion molecule-3 (ICAM-3)-grabbing nonintegrin) on Raji/DC-SIGN cells (human) (UniProt Q9NNX6). The experiment is described as above.

Regarding “R5-tropic HIV-1ADA envelope glycoprotein on pseudotyped HIV-Luc/ADA particles (natural protein)”, the fold HIV-1 binding relative to the parental cells was determined as 1.8 fold in experiment [1] and 1.5 fold in experiment [2].
